{
  "source": "patent KR20140021799A",
  "about": "(dated 2014)",
  "binders": {"B1": {"name": "anti-CD20 scFv-LFA3-1 (other)", "chain": "FSQQIYGTWKGDVTFHVPSNVPLKEVLWKKQKDKVAELENSEFRAFSDFKGRVYLDTVSGSLTINSLQSEDFGEYEMESPNITDTMKFFLYVLESLPSPTEFGGGGSGGSGSGGGQVQLQQPGAELVKPGASVKMSCKASGYTFTSYNMHWVKQTPGRGLEWIGAIYPGNGDTSYNQKFKGKATLTADKSSSTAYMQLSSLTSEDSAVYYCARSTYYGGDWYFNVWGAGTTVTVSAGGGGSGGGGSGGGGSQIVLSQSPAILSASPGEKVTMTCRASSSVSYIHWFQQKPGSSPKPWIYATSNLASGVPVRFSGSGSGTSYSLTISRVEAEDAATYYCQQWTSNPPTFGGGTKLEIK"}},
  "target": "T1, CD2 항원 (Jurkat T 세포 / T 림프구 표면) (UniProt P06729 25-351, limits assumed)",
  "T1 construct": "whole, on cells; also called CD2-positive Jurkat T 세포",
  "T1 sequence (looked up)": "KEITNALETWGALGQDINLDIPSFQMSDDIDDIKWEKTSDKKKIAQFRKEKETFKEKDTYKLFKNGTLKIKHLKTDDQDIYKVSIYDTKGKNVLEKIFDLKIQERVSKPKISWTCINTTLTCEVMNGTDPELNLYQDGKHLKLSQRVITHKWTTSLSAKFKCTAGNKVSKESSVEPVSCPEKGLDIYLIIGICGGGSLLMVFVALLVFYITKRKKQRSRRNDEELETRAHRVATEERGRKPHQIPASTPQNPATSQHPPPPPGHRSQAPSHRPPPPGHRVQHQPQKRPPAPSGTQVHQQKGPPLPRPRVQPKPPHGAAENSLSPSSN",
  "test": "cell-based ELISA on Jurkat T cells, FcR blocker, anti-6X HIS tag-HRP detection",
  "data": [
    {"binder": "B1", "values": [
      {"measurement": "binding result", "value": "binds"}
    ]}
  ]
}
